This passage reports Kd, rate of in vitro annealing of U4 and U6 with Prp24-8Asub in place of wild-type Prp24 (50 nM Prp24/50 nM Lsm2–8) and fold reduction of affinity against wild-type Prp24 (U6•Prp24 complex) results from paper PMC5931518, “Architecture of the U6 snRNP reveals specific recognition of 3′-end processed U6 snRNA”.

For series [1], the target named is Prp24 (EMSA, wild type);Lsm2-8 mostly wild type (Saccharomyces cerevisiae;Saccharomyces cerevisiae) (UniProt P38203+P57743+P40070+P40089+Q06406+P53905+P47093). Briefly: EMSA. Particulars: Lsm2-8 titrated onto U6 pre-bound with 20 nM Prp24; FP: 50 mM KCl or as listed 100 mM KCl in both 2x buffers, HEPES (10 mM acid + 10 mM Na salt), 10% glycerol, 1 mM TCEP, tRNA, heparin, BSA, 0.3 nM FAM-RNA …. Background: In EMSA bound probe runs differently from free probe, usually more slowly.
Prp24 (EMSA, wild type);Lsm2-8 mostly wild type (Saccharomyces cerevisiae;Saccharomyces cerevisiae), sequence (P40070 whole entry, looked up, one chain of several): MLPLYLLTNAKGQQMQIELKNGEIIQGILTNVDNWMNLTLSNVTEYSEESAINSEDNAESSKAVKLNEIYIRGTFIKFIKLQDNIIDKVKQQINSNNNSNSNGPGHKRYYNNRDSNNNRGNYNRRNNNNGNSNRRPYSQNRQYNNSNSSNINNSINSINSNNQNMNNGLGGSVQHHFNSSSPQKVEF

The target of series [2] is Prp24-8Asub;Lsm2-8 mostly wild type (Saccharomyces cerevisiae;Saccharomyces cerevisiae) (UniProt P38203+P57743+P40070+P40089+Q06406+P53905+P47093). Briefly: EMSA. To be noted: Lsm2-8 titrated onto U6 pre-bound with 20 nM Prp24-8Asub; FP: 50 mM KCl or as listed 100 mM KCl in both 2x buffers, HEPES (10 mM acid + 10 mM Na salt), 10% glycerol, 1 mM TCEP, tRNA, heparin, BSA, 0.3 nM FAM-RNA ….
Prp24-8Asub;Lsm2-8 mostly wild type (Saccharomyces cerevisiae;Saccharomyces cerevisiae), sequence (P40070 whole entry, looked up, one chain of several): as above

The target in series [3] is T1, Lsm2-8 Lsm8-delC (Saccharomyces cerevisiae, UniProt P38203;P57743;P40070;P40089;Q06406;P53905;P47093 …).
T1 sequence 1: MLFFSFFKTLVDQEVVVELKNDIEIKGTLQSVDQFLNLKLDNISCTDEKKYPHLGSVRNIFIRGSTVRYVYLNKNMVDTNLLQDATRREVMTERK
T1 sequence 2: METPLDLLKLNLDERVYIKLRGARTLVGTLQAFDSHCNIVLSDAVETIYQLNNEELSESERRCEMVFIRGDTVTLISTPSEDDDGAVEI
T1 sequence 3: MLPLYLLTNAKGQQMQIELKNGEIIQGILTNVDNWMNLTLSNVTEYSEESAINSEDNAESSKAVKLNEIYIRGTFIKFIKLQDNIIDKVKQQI
T1 sequence 4: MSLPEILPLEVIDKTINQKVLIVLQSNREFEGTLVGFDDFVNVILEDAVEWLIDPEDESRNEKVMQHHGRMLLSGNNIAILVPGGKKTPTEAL
T1 sequence 5: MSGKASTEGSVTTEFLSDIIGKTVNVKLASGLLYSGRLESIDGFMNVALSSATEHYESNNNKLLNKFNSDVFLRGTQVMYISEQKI
T1 sequence 6: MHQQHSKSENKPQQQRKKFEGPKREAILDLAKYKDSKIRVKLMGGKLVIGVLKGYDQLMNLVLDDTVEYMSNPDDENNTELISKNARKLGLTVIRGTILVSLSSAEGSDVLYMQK
T1 sequence 7: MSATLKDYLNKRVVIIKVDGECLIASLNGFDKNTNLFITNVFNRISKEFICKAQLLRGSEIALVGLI
Briefly: fluorescence polarization; FP: 50 mM KCl or as listed 100 mM KCl in both 2x buffers, HEPES (10 mM acid + 10 mM Na salt), 10% glycerol, 1 mM TCEP, tRNA, heparin, BSA, 0.3 nM FAM-RNA; EMSA: 100 mM KCl, 20% sucrose, 20 mM bis-tris/10 mM HCl pH ~6.5, 1 mM EDTA, 1 mM TCEP, 0.01% Triton X-100, tRNA, heparin, BSA, room temperature, gel at 4 C. Particulars: protein: recombinant; tags: as P1; copies: 1;1;1;1;1;1;1; label: 5'-FAM; single strand. Background: In fluorescence polarisation assays a small probe gives low polarisation when free and higher when bound to something large.

Series [4] addresses T2, Lsm2-8 Lsm3-R21A (Saccharomyces cerevisiae, UniProt P38203;P57743;P40070;P40089;Q06406;P53905;P47093 …, R21A).
T2 sequence 1: T1 sequence 1
T2 sequence 2: T1 sequence 2 with R21A
T2 sequence 3: T1 sequence 3
T2 sequence 4: T1 sequence 4
T2 sequence 5: T1 sequence 5
T2 sequence 6: T1 sequence 6
T2 sequence 7: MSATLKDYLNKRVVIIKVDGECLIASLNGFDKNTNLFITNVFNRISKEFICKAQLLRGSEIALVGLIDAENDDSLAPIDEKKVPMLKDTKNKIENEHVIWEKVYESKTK
Described as above. Particulars: protein: recombinant; tags: as P1; copies: 1;1;1;1;1;1;1; label: 5'-FAM; single strand.

For series [5], the target named is T3, Lsm2-8 Lsm2-K20A (Saccharomyces cerevisiae, UniProt P38203;P57743;P40070;P40089;Q06406;P53905;P47093 …, K20A).
T3 sequence 1: T1 sequence 1 with K20A
T3 sequence 2: T1 sequence 2
T3 sequence 3: T1 sequence 3
T3 sequence 4: T1 sequence 4
T3 sequence 5: T1 sequence 5
T3 sequence 6: T1 sequence 6
T3 sequence 7: T2 sequence 7
The description is as above. To be noted: protein: recombinant; tags: as P1; copies: 1;1;1;1;1;1;1; label: 5'-FAM; single strand.

For series [6], the target named is T4, Lsm2-8 construct 2 (WT) (Saccharomyces cerevisiae, UniProt P38203;P57743;P40070;P40089;Q06406;P53905;P47093 …).
T4 sequence 1: T1 sequence 1
T4 sequence 2: T1 sequence 2
T4 sequence 3: T1 sequence 3
T4 sequence 4: T1 sequence 4
T4 sequence 5: T1 sequence 5
T4 sequence 6: T1 sequence 6
T4 sequence 7: T2 sequence 7
The series is described as above. To be noted: protein: recombinant; tags: Lsm8 C-terminal His6 (non-cleavable); Lsm3 C-terminal StrepII (non-cleavable); MBP on Lsm6 (TEV-labile); copies: 1;1;1;1;1;1;1; label: 5'-FAM; single strand.

Series [7] concerns the target T5, Lsm2-8 Lsm3-R21E (Saccharomyces cerevisiae, UniProt P38203;P57743;P40070;P40089;Q06406;P53905;P47093 …, R21E).
T5 sequence 1: T1 sequence 1
T5 sequence 2: T1 sequence 2 with R21E
T5 sequence 3: T1 sequence 3
T5 sequence 4: T1 sequence 4
T5 sequence 5: T1 sequence 5
T5 sequence 6: T1 sequence 6
T5 sequence 7: T2 sequence 7
Described as above. Particulars: protein: recombinant; tags: as P1; copies: 1;1;1;1;1;1;1; label: 5'-FAM; single strand.

Series [8] concerns the target T6, Lsm2-8 Lsm2-K20E (Saccharomyces cerevisiae, UniProt P38203;P57743;P40070;P40089;Q06406;P53905;P47093 …, K20E).
T6 sequence 1: T1 sequence 1 with K20E
T6 sequence 2: T1 sequence 2
T6 sequence 3: T1 sequence 3
T6 sequence 4: T1 sequence 4
T6 sequence 5: T1 sequence 5
T6 sequence 6: T1 sequence 6
T6 sequence 7: T2 sequence 7
Described as above. To be noted: protein: recombinant; tags: as P1; copies: 1;1;1;1;1;1;1; label: 5'-FAM; single strand.

For series [9], the target named is Prp24-8Asub (eight RRM4 residues at the Lsm2 interface substituted with alanine) (S. cerevisiae) (UniProt P49960).
For series [10], the target named is T7, wild-type Prp24 for electrophoretic mobility shift assays (TEV-labile N-terminal polyhistidine tag removed) (S. cerevisiae, UniProt P49960 1-444).
T7 chain: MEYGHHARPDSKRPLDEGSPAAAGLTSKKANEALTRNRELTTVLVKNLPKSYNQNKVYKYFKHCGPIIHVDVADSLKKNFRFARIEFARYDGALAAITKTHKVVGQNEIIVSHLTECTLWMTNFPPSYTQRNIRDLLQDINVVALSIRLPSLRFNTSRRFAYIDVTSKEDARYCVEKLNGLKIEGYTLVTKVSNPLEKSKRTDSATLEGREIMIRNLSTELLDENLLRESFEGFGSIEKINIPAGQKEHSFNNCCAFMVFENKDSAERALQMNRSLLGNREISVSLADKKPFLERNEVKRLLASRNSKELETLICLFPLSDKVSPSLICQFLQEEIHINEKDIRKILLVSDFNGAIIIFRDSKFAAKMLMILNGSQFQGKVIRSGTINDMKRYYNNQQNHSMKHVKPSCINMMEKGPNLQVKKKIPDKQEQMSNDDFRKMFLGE
Briefly: EMSA; Prp24 pre-bound to U6 RNA (U6/Prp24 complex).

The target in series [11] is T8, Prp24-8Asub (eight RRM4 residues at the Lsm2 interface substituted with alanine) (S. cerevisiae, UniProt P49960 1-444, D361A | S362A | K363A | K367A | L369A | M370A | I371A | N373A).
T8 sequence: T7 chain with D361A, S362A, K363A, K367A, L369A, M370A, I371A, N373A
Briefly: EMSA; Prp24-8Asub pre-bound to U6 RNA (U6/Prp24 complex).

Series [12] addresses Prp24-8Asub (eight RRM4 residues at the Lsm2 interface substituted with alanine) (S. cerevisiae) (UniProt P49960). The series can be described thus: native gel or EMSA; different amounts of Lsm2–8 added to 0.5 nM Cy3-U6 1–112 pre-incubated 20 min with 20 nM Prp24; 100 mM KCl, bis-tris pH ~6.5, room temperature; 6% native polyacrylamide gel at 4 °C; Hill fit, average of three technical replicates.

Changes are numbered by the printed parent chain.

By Kd is commonly meant the equilibrium constant for the complex coming apart. Consider Cy3-U6 1-112, for which the dissociation constant (Kd) in series [1] is 0.0028 µM; in series [2] it was 0.0057 µM.
Take UUUCGUUUUU (ssRNA, none (3' phosphate removed with CIP)) [U6 104-113 2',3'-cis diol]: the Kd in series [3] was 0.277 ± 0.032 µM; in series [4], 0.0408 ± 0.0033 µM; in series [5] it was 0.522 ± 0.048 µM; in series [6] it was 0.0374 ± 0.0045 µM; in series [7], 0.195 ± 0.027 µM; in series [8], 1.87 ± 0.37 µM.

B1: Lsm2–8 heteroheptameric ring, "mostly wild type" construct (complex)
chain 1: MGSMLFFSFFKTLVDQEVVVELKNDIEIKGTLQSVDQFLNLKLDNISCTDEKKYPHLGSVRNIFIRGSTVRYVYLNKNMVDTNLLQDATRREVMTERK
chain 2: MGSMETPLDLLKLNLDERVYIKLRGARTLVGTLQAFDSHCNIVLSDAVETIYQLNNEELSESERRCEMVFIRGDTVTLISTPSEDDDGAVEI
chain 3: MGSMLPLYLLTNAKGQQMQIELKNGEIIQGILTNVDNWMNLTLSNVTEYSEESAINSEDNAESSKAVKLNEIYIRGTFIKFIKLQDNIIDKVKQQI
chain 4: MGSMSLPEILPLEVIDKTINQKVLIVLQSNREFEGTLVGFDDFVNVILEDAVEWLIDPEDESRNEKVMQHHGRMLLSGNNIAILVPGGKKTPTEAL
chain 5: GSMSGKASTEGSVTTEFLSDIIGKTVNVKLASGLLYSGRLESIDGFMNVALSSATEHYESNNNKLLNKFNSDVFLRGTQVMYISEQKI
chain 6: MGSMHQQHSKSENKPQQQRKKFEGPKREAILDLAKYKDSKIRVKLMGGKLVIGVLKGYDQLMNLVLDDTVEYMSNPDDENNTELISKNARKLGLTVIRGTILVSLSSAEGSDVLYMQK
chain 7: GSMSATLKDYLNKRVVIIKVDGECLIASLNGFDKNTNLFITNVFNRISKEFICKAQLLRGSEIALVGLIDAENDDSLAPIDEKKVPMLKDTKNKIENEHVIWEKVYESKTK
Molecule B1 gave a rate of in vitro annealing of U4 and U6 with Prp24-8Asub in place of wild-type Prp24 (50 nM Prp24/50 nM Lsm2–8) in series [9] of 2 fold slower. The equilibrium dissociation constant (Kd) in series [10] stood at 0.0028 µM; in series [11], 0.0057 µM. The same molecule came in with a fold reduction of affinity against wild-type Prp24 (U6•Prp24 complex) in series [12] of 2 fold.
Turning to UUUCGUUUUU (ssRNA, 3' phosphate) [U6 104-113 3' phosphate], the Kd in [3] stood at 0.502 ± 0.047 µM; in series [4] it was 0.123 ± 0.012 µM; in [5], 0.841 ± 0.089 µM; in [6], 0.00613 ± 0.00087 µM; in series [7], 1.15 ± 0.19 µM; in [8], 2.32 ± 0.45 µM.
